Test results reported in patent US20070087405.

Molecular target: β subunit of human prolyl 4-hydroxylase, P07237
Sequence (P07237 18-508): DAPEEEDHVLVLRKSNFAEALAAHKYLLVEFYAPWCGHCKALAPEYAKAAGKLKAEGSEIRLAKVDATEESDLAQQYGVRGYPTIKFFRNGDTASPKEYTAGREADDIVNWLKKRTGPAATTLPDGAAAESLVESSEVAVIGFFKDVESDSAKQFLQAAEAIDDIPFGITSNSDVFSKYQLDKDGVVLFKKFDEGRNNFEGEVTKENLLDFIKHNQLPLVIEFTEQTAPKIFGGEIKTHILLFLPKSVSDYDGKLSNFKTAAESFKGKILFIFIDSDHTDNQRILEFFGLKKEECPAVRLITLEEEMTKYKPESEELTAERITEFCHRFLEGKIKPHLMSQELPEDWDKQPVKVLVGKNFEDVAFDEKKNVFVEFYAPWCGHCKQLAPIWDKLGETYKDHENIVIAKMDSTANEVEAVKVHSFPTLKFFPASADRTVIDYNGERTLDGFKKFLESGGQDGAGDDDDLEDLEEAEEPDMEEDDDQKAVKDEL

B1: α subunit of human prolyl 4-hydroxylase (protein)
chain: HPGFFTSIGQMTDLIHTEKDLVTSLKDYIKAEEDKLEQIKKWAEKLDRLTSTATKDPEGFVGHPVNAFKLMKRLNTEWSELENLVLKDMSDGFISNLTIQRQYFPNDEDQVGAAKALLRLQDTYNLDTDTISKGNLPGVKHKSFLTAEDCFELGKVAYTEADYYHTELWMEQALRQLDEGEISTIDKVSVLDYLSYAVYQQGDLDKALLLTKKLLELDPEHQRANGNLKYFEYIMAKEKDVNKSASDDQSDQKTTPKKKGVAVDYLPERQKYEMLCRGEGIKMTPRRQKKLFCRYHDGNRNPKFILAPAKQEDEWDKPRIIRFHDIISDAEIEIVKDLAKPRLRRATISNPITGDLETVHYRISKSAWLSGYENPVVSRINMRIQDLTGLDVSTAEELQVANYGVGGQYEPHFDFARKDEPDAFKELGTGNRIATWLFYMSDVSAGGATVFPEVGASVWPKKGTAVFWYNLFASGEGDYSTRHAACPVLVGNKWVSNKWLHERGQEFRRPCTLSELE
  prolyl 4-hydroxylase activity (decarboxylation of 2-oxo[1-14C]glutarate) and trimeric assembly of mC21: These data suggest that the P4α and P4β are capable of assembling into an active α2β2 tetramer in the Drosophila expression system
